Experimental data from paper PMC9170038, “Crowdsourced RNA design discovers diverse, reversible, efficient, self-contained molecular switches”.

Biological target: MS2 coat protein, dlFG mutant (Escherichia phage MS2, UniProt P03612, del68-81insG)
Assay: 4 mM Mg2+; no ligand; RNA-MaP array; 100 mM Tris-HCl pH 7.5, 80 mM KCl, 4 mM MgCl2, 0.1 mg/mL BSA, 1 mM DTT, 0.01 mg/mL yeast tRNA, 0.01% Tween-20; protein 1.5 nM to 3 uM; 37 C (Table S3)
Details: chain copies: 2; label: tethered by stalled RNA polymerase

B1: Eterna 7685149 (Same State - Theophylline B) (ssRNA)
RNA: AAGUGUUCUAGUGAUACCAGACAAUUUUAUUUUUUCUUUUUUGCUAAGUGAUGUUUAGCAGUCCCUUGGCAGCACUAUUUCACUA
  Kd: > 3000 nM

B2: Eterna 7716457 (Exclusion - Theophylline B) (ssRNA)
RNA: CGUUUAUAGCAGGAUACCAGUACCCAUUAUGUACGUUUAUAGUAGAGUGAUGUUCUAAAGUACCCUUGGCAGCUUCCCGUGACCC
  Kd: > 3000 nM

B3: Eterna 7758370 (Same State - Tryptophan B) (ssRNA)
RNA: UGUCAUUGGUCGGCCGCCACUUCAUAAAGAGUGAUGUUCUUAAAGACGGAUCGAAAGAUCUGUCGAAGGACCGGGACCGAUGACU
  Kd: > 3000 nM

B4: Eterna 7761084 (Exclusion - FMN A) (ssRNA)
RNA: CGAGUGAUGUUCGUUCGUAUAUUUGGGUGACAGGAUAUGCGGAAACGCAGAAGGGUCGCCUUCGGGUUACCCGAAUUGGCGUUUU
  Kd: > 3000 nM

B5: Eterna 7751925 (Exclusion - Tryptophan B) (ssRNA)
RNA: GGUAGCAUGGCGGCCGCCACUAAGAGAGUGAUGUUCUCUUAGUUUUUUGAUGUGUUAUCAAUUCUUAGGACCGGGCCAUGCUACC
  Kd: > 3000 nM

B6: Eterna 7675404 (Same State - Tryptophan A) (ssRNA)
RNA: UGGCGAGUGAUGUUCGUUGUUGUAGUGUGUCGAGGACCGGUACGGCCGCCACUCGAGUUGGUUGUUGUUGUUGCUGUUGUUGCUG
  Kd: > 3000 nM

B7: Eterna 7740495 (Exclusion - Theophylline A) (ssRNA)
RNA: UCCUGCAAUCGUCCACGAAAGUGGAUCGAUACCAGAGUCGAAAGACUCCCUUGGCAGCGAGUGAUGUUCGAAGCAGGUAAAUAAA
  Kd: > 3000 nM

B8: Eterna 7727764 (Exclusion - Tryptophan B) (ssRNA)
RNA: AAUAAACAGUCGGCCGCCACUUCAAUAGACUUAUUAUUGAAUGGUGUAGUUCUUCAGUGAUGUUGAAGGACCGGGACUUUCGCGC
  Kd: > 3000 nM

B9: Eterna 7727640 (Exclusion - Tryptophan A) (ssRNA)
RNA: GGCCUGGUCGCCUAGUGAUUGUCGGUAGGACGAGGACCGGUACGGCCGCCACUCGGCUUACCCAGUGAUGUUGGGUAUCCGUGGC
  Kd: > 3000 nM

B10: Eterna 7694710 (Exclusion - FMN B) (ssRNA)
RNA: GGAUAGGACAGAGGAUAUGGACAGUCUACAAAGUAGGCUGAAAAUCCUUGAAUGGAAGUGAUGUUUCUAGAAGGCUGUCCUAUCG
  Kd: > 3000 nM

B11: Eterna 7692524 (Same State - Theophylline A) (ssRNA)
RNA: UGAUAAUGCAGUGAUGUUGCUAGAAACGAUACCAGUUAAGAAAAGAACCCUUGGCAGCGUAAAGUGCGCUCUAAUGAGUGUGCUU
  Kd: > 3000 nM

B12: Eterna 7702594 (Exclusion - Arginine B) (ssRNA)
RNA: GUUACGCAUGGAAGGAGCGCACUCCGAUUGAUCGACACAGUGAUGUUGUGGUUCGUUCGAAUGCAGGUAGGUCGCCAUGUGUAAC
  Kd: > 3000 nM

B13: Eterna 7692279 (Exclusion - Arginine B) (ssRNA)
RNA: AUUUUUUACAGAAGGAGCGUGUUUUAAUAAUCAUGGUGCUUAGCGAGUGAUGUUCGCUUUACACAGGUAGGUCGCUGUUUAUUUA
  Kd: > 3000 nM

B14: Eterna 7693586 (Exclusion - Tryptophan B) (ssRNA)
RNA: GGAUAGGACACGGCCGCCACUACCGAGGAUACUCGAAACAUUUCCUCAGAUGAGUGAUGUUCAUCUAGGACCGGGUGUCCUAUCG
  Kd: > 3000 nM

B15: Eterna 7696143 (Exclusion - Theophylline B) (ssRNA)
RNA: UGAUACCAGACUGAUACCAGCCAGUGAUGUUGGCUAAUCCAAGAAGGAGUCAAAGACUCCGGCCCUUGGCAGCAGUCUGGUAUCU
  Kd: > 3000 nM

B16: Eterna 7700638 (Same State - FMN B) (ssRNA)
RNA: ACCUAGUACGUAGGAUAUCGAACAUCAUUUAGUGAGAUCGAGUGAUGUUCGAUCACGUCUUCAGUUCGAGAAGGACGUACUAGGA
  Kd: > 3000 nM

B17: Eterna 7721560 (Exclusion - FMN A) (ssRNA)
RNA: CGAGUGAUGUUCGUUUUAAAAUUUUUUUGACAGGAUAUGCGGAAACGCAGAAGGGUCACCUUUGAGUUAAAAGAAAUUAAAUUUU
  Kd: > 3000 nM

B18: Eterna 7721239 (Exclusion - Theophylline B) (ssRNA)
RNA: GGAAUAACCUGGGAUACCAGUCGGAGGACUAGGGAUCGGAGUGAUGUUCUGGGAUGUUUCGGCCCUUGGCAGCUCUGGUUUUCCG
  Kd: > 3000 nM

B19: Eterna 1615 (Same State - Theophylline A) (ssRNA)
RNA: UGCACCAGUGAUGUUGGUCGGCACCGAGAUACCAGCUGAUCUCUUAGCCCUUGGCAGCUCUUUAUUCGCGUUAUCAGUUUCUUCG
  Kd: > 3000 nM

B20: Eterna 7710066 (Exclusion - Tryptophan A) (ssRNA)
RNA: AGCUGGGAUCCUCAGCGUCAAAGACGCAGUCGAGGACCGGUACGGCCGCCACUCGACACGAGGAUCACCCGUGUCAUUCCCAGCA
  Kd: 379 nM

B21: Eterna 7687669 (Same State - Tryptophan B) (ssRNA)
RNA: UUUAUUAAGACGGCCGCCACUGAUUCAUAGUGAUGUUAUGAUAUAAUCUUAGUGAUAUUUAUAAACAGGACCGGGUCAAUUAUUA
  Kd: > 3000 nM

B22: Eterna 7730299 (Same State - Arginine B) (ssRNA)
RNA: UGUAUGGACUGAAGGAGCGGGUAAAUAACCUGAGGAUCACCCAGGUAAAAGGCGAAAGCCACCCAGGUAGGUCGCAGUCCAUACU
  Kd: 10.9 nM

B23: Eterna 7730249 (Same State - Arginine B) (ssRNA)
RNA: UGUAUGGACUGAAGGAGCGCCUCAAAAUAGCAUGAGGAUCACCCAUGCAAGGCGAAAGCCGGGCAGGUAGGUCGCAGUCCAUACU
  Kd: 12.6 nM

B24: Eterna 7626312 (Exclusion - Theophylline A) (ssRNA)
RNA: AGAUGCCACUGUGGAUAGCACGAUGCCGAUACCAGCUAGGAAACUAGCCCUUGGCAGCGGUACAUGAGGAUCACCCAUGUAUCCU
  Kd: 13.2 nM

B25: Eterna 10494 (Sensor v3, turn-off variant 2) (ssRNA)
RNA: AGUACUAACACGAAAGUGUUAGUCCAAUAAGCUUGUGAAACAUGAGGAUCACCCAUGUCCUCAUAAGCUCGUCUUAU
  Kd: 15.2 nM

B26: Eterna 6436150 (Inverted Small Loop Exclusion NG 3) (ssRNA)
RNA: AACCGCGACCGGCCUGGCACGCCGAGAAGGGUACGUGACCUGCUUUACAUGAGGAUCACCCAUGUACAGGAUAUCGGAUAGCCG
  Kd: 5.68 nM

B27: Eterna 6084833 (Exclusion 5) (ssRNA)
RNA: UCAUGCUAAGGAUAUGACGUCGGCUACAUGAGGAUCACCCAUGUGGGUUCGUUAUGGCCAUUAGAAGGUAGCGAUU
  Kd: 19.6 nM

B28: Eterna 6430181 (Small Loop Exclusion NG 3) (ssRNA)
RNA: UAUAGCCCUAGUUCGAGUGUCUAGGAGGAUAUACAGAGGCAGCCAAAGACAUGAGGAUCACCCAUGUAGAAGGCCUAGACGGUA
  Kd: 13.6 nM

B29: Eterna 7702469 (Exclusion - Arginine B) (ssRNA)
RNA: GUUACGCAUGGAAGGAGCGCGAAAAUUUAUAGUGAGUGAUGUUCACAAAUAAGAAUAAUAACGCAGGUAGGUCGCCAUGUGUAAC
  Kd: > 3000 nM

B30: Eterna 5954774 (Same State NG 2) (ssRNA)
RNA: GUAGCAUACCGAGGAUAUUCAUAUAAUACAUGAGGAUCACCCAUGUUAUAUAGGCGAAAGCCUUGGGAGAAGGCGGAAUGCUAC
  Kd: 16.3 nM

B31: Eterna 7691982 (Same State - Arginine B) (ssRNA)
RNA: UGACUGGACUGAAGGAGCGAGCGAGACAAAGUCUCGAAAAUUCAGUGAUGUUGAAAUAUAACUCAGGUAGGUCGCAGUCUAGUCU
  Kd: > 3000 nM

B32: Eterna 6093766 (Exclusion NG 2) (ssRNA)
RNA: UGUCGGAGCAGAGGAUAUAUACAUGAGGAUCACCCAUGUAAAUGAAUGAGCUGGAAACAGCAAGUAUAGAAGGCUGCUCCGACA
  Kd: 14.9 nM

B33: Eterna 6454073 (Inverted Small Loop Exclusion NG 3) (ssRNA)
RNA: CUGUGACGGUGCGCAAGUGGACGUAGAAGGGUCACAUGAGGAUCACCCAUGUGGGCCUGCUAGUGACAGGAUAUACGUUCGUGC
  Kd: 19.3 nM

B34: Eterna 6416899 (Inverted Same State NG 1) (ssRNA)
RNA: CACAAAUGGCAGAAGGGACGGACGAUAGUGUAGUCAGGAUAUGCAAAUAGGUAUGGACAUGAGGAUCACCCAUGUCCGUCCUUU
  Kd: 15.2 nM

B35: Eterna 7755342 (Exclusion - FMN A) (ssRNA)
RNA: AAGUGUCAUUAGACACACCGAUGUAUAAACUAGGAUAUGCUGAUAAGCAGAAGGAGUGAUGUUCCUUUCAUCAUCGGAAUUAAAU
  Kd: > 3000 nM

B36: Eterna 6071251 (Exclusion 3) (ssRNA)
RNA: GCACUGACAGGAUAUACAUGAGGAUCACCCAUGUGACCCUUACAGUACUCGCGUACUGGUAGAAGGGUCUGUGC
  Kd: 35.4 nM

B37: Eterna 6382764 (Same State NG 3) (ssRNA)
RNA: GGACGUCACAUUAACAUGAGGAUCACCCAUGUGAAAACACAUGAGGAUAUGGAUCCUAAUUGGAUCCAGAAGGCAUGGACGUCC
  Kd: 27.8 nM

B38: Eterna 6437027 (Inverted Exclusion NG 3) (ssRNA)
RNA: AUACAUGAGGAUCACCCAUGUUACUGGGUCUAUAUAGAACGUAGAAGGAUGUUUAUACACAUAACAUAGGAUAUACAAUAUUGU
  Kd: 33.3 nM

B39: Eterna 7646225 (Same State - Tryptophan A) (ssRNA)
RNA: AAUAACAUGAGGAUCACCCAUGUAAGUAAACGAGGACCGGUACGGCCGCCACUCGAAUAAAUAAAGUACCGGUAAGAUCCAUAGA
  Kd: 21.3 nM

B40: Eterna 6387857 (Small Loop Same State NG 3) (ssRNA)
RNA: AAUCUUUUUAUGGGAUUACAAUAUGAGGAUAUCAUUCAUUUAUACAUGAGGAUCACCCAUGUUACUGAGAAGGCAUAUAUAAUA
  Kd: 28.4 nM

B41: Eterna 5958897 (Exclusion NG 2) (ssRNA)
RNA: AGCUGUGGCCGAGGAUAUCUAUCCCAAAUAACCGAAAUAUAAUCGGACAUGAGGAUCACCCAUGUAGAGAAGGCGGUCUCAGCA
  Kd: 28.4 nM
